Results as given in IntAct's records for PubMed 11854298.

B1: Peroxisome proliferator-activated receptor gamma coactivator 1-beta (Homo sapiens), Q86YN6 (parent)
chain: MAGNDCGALLDEELSSFFLNYLADTQGGGSGEEQLYADFPELDLSQLDASDFDSATCFGELQWCPENSETEPNQYSPDDSELFQIDSENEALLAELTKTLDDIPEDDVGLAAFPALDGGDALSCTSASPAPSSAPPSPAPEKPSAPAPEVDELSLLQKLLLATSYPTSSSDTQKEGTAWRQAGLRSKSQRPCVKADSTQDKKAPMMQSQSRSCTELHKHLTSAQCCLQDRGLQPPCLQSPRLPAKEDKEPGEDCPSPQPAPASPRDSLALGRADPGAPVSQEDMQAMVQLIRYMHTYCLPQRKLPPQTPEPLPKACSNPSQQVRSRPWSRHHSKASWAEFSILRELLAQDVLCDVSKPYRLATPVYASLTPRSRPRPPKDSQASPGRPSSVEEVRIAASPKSTGPRPSLRPLRLEVKREVRRPARLQQQEEEDEEEEEEEEEEEKEEEEEWGRKRPGRGLPWTKLGRKLESSVCPVRRSRRLNPELGPWLTFADEPLVPSEPQGALPSLCLAPKAYDVERELGSPTDEDSGQDQQLLRGPQIPALESPCESGCGDMDEDPSCPQLPPRDSPRCLMLALSQSDPTFGKKSFEQTLTVELCGTAGLTPPTTPPYKPTEEDPFKPDIKHSLGKEIALSLPSPEGLSLKATPGAAHKLPKKHPERSELLSHLRHATAQPASQAGQKRPFSCSFGDHDYCQVLRPEGVLQRKVLRSWEPSGVHLEDWPQQGAPWAEAQAPGREEDRSCDAGAPPKDSTLLRDHEIRASLTKHFGLLETALEEEDLASCKSPEYDTVFEDSSSSSGESSFLPEEEEEEGEEEEEDDEEEDSGVSPTCSDHCPYQSPPSKANRQLCSRSRSSSGSSPCHSWSPATRRNFRCESRGPCSDRTPSIRHARKRREKAIGEGRVVYIQNLSSDMSSRELKRRFEVFGEIEECEVLTRNRRGEKYGFITYRCSEHAALSLTKGAALRKRNEPSFQLSYGGLRHFCWPRYTDYDSNSEEALPASGKSKYEAMDFDSLLKEAQQSLH
B2: Estrogen receptor (Homo sapiens), P03372 (parent)
chain: MTMTLHTKASGMALLHQIQGNELEPLNRPQLKIPLERPLGEVYLDSSKPAVYNYPEGAAYEFNAAAAANAQVYGQTGLPYGPGSEAAAFGSNGLGGFPPLNSVSPSPLMLLHPPPQLSPFLQPHGQQVPYYLENEPSGYTVREAGPPAFYRPNSDNRRQGGRERLASTNDKGSMAMESAKETRYCAVCNDYASGYHYGVWSCEGCKAFFKRSIQGHNDYMCPATNQCTIDKNRRKSCQACRLRKCYEVGMMKGGIRKDRRGGRMLKHKRQRDDGEGRGEVGSAGDMRAANLWPSPLMIKRSKKNSLALSLTADQMVSALLDAEPPILYSEYDPTRPFSEASMMGLLTNLADRELVHMINWAKRVPGFVDLTLHDQVHLLECAWLEILMIGLVWRSMEHPGKLLFAPNLLLDRNQGKCVEGMVEIFDMLLATSSRFRMMNLQGEEFVCLKSIILLNSGVYTFLSSTLKSLEEKDHIHRVLDKITDTLIHLMAKAGLTLQQQHQRLAQLLLILSHIRHMSNKGMEHLYSMKCKNVVPLYDLLLEMLDAHRLHAPTSRGGASVEETDQSHLATAGSTSSHSLQKYYITGEAEGFPATV
partner: B1 chain

Variants of: B1
Conditions: with esr1_human ESR1, P03372

Row | effect of a mutation on the interaction | Variant
1 | disrupting interaction strength | L155A;L156A;L159A;L160A;L343A;L346A;L347A
2 | decreasing interaction strength | L155A;L156A;L159A;L160A
3 | decreasing interaction strength | L343A;L346A;L347A

Variants of: B2
Conditions: with prgc2_human PPARGC1B

Row | effect of a mutation on the interaction | Variant
4 | disrupting interaction strength | MTMTLHTKASGMALLHQIQGNELEPLNRPQLKIPLERPLGEVYLDSSKPAVYNYPEGAAYEFNAAAAANAQVYGQTGLPYGPGSEAAAFGSNGLGGFPPLNSVSPSPLMLLHPPPQLSPFLQPHGQQVPYYLENEPSGYTVREAGPPAFYRPNSDNRRQGGRERLASTNDKGSMAMESAKETRYCAVCNDYASGYHYGVWSCEGCKAFFKRSIQGHNDYMCPATNQCTIDKNRRKSCQACRLRKCYEVGMMKGGIRKDRRGGRMLKHKRQRDDGEGRGEVGSAGDMRAANLWPSPLMIKRSKKNSLALSLTADQMVSALLDAEPPILYSEYDPTRPFSEASMMGLLTNLADRELVHMINWAKRVPGFVDLTLHDQVHLLECAWLEILMIGLVWRSMEHPGKLLFAPNLLLDRNQGKCVEGMVEIFDMLLATSSRFRMMNLQGEEFVCLKSIILLNSGVYTFLSSTLKSLEEKDHIHRVLDKITDTLIHLMAKAGLTLQQQHQRLAQLLLILSHIRHMSNKGMEHLYSMKCKNVVPLYDAALEMLDAHRLHAPTSRGGASVEETDQSHLATAGSTSSHSLQKYYITGEAEGFPATV [L539A;L540A]
